Reference: PMC2992810
Like-named read-outs stand apart in the source and are kept apart here.

Columns and labels:
HA-hMC4R (human) [1] = molecular target: HA-hMC4R (human) (UniProt P32245)
HA-hMC4R (human) [2] = molecular target: HA-hMC4R (human) (UniProt P32245); experiment: radioligand binding
HA-hMC4R (human) [3] = molecular target: HA-hMC4R (human) (UniProt P32245); experiment: radioligand binding; remark: listed apart in the source
HA-hMC4R (human) [4] = molecular target: HA-hMC4R (human) (UniProt P32245); experiment: radioligand binding; remark: listed apart in the source
[5] = molecular target: MC2R-MRAP complex (HA-hMC2R co-expressed with mMRAP on CHO cells) (human | mouse) (UniProt Q01718)
[6] = molecular target: MC2R-MRAP complex (HA-hMC2R co-expressed with mMRAP on CHO cells) (human | mouse) (UniProt Q01718); remark: listed apart in the source
[7] = molecular target: MC2R-MRAP2 complex (HA-hMC2R co-expressed with mMRAP2 on CHO cells) (human | mouse) (UniProt Q01718)
[8] = molecular target: MC2R-MRAP complex (HA-hMC2R co-expressed with mMRAP on CHO cells) (human | mouse) (UniProt Q01718); experiment: radioligand binding

Chain of UniProt P32245 (P32245 whole entry): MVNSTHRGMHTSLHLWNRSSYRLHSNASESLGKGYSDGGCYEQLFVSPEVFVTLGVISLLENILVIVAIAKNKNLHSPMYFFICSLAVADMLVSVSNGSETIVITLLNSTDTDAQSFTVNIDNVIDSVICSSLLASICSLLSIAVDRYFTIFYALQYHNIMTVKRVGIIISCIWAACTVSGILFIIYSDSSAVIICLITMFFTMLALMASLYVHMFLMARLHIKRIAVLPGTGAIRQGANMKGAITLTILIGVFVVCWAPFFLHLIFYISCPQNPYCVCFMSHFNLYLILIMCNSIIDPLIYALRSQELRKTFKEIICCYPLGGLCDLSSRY

EC50 of the CRE-Luc cAMP reporter response in CHO cells containing MC4R alone (HA-hMC4R (human) [1]) [nM] | EC50 of the CRE-Luc cAMP reporter response in CHO cells containing MC4R and MRAP (HA-hMC4R (human) [1]) [nM] | IC50 (HA-hMC4R (human) [2]) [nM] | IC50 (HA-hMC4R (human) [3]) [nM] | IC50 (HA-hMC4R (human) [4]) [nM] | EC50 of cAMP accumulation (LANCE assay, 20 min) in CHO cells [5] [nM] | EC50 of phosphorylation of ERK1 and ERK2 in serum-deprived HEK 293 cells (5 min) [6] [nM] | EC50 of phosphorylation of ERK1 and ERK2 in serum-deprived HEK 293 cells (5 min) [7] [nM] | IC50 [8] [nM] | Substance
0.11 | 0.27 | 1.1 | 0.19 | 0.92 | – | – | – | – | NDP-α-MSH (peptide)
– | – | – | – | – | 2.4 | 1.1 | 68 | 5.7 | ACTH(1–39) (peptide)
